How the values were obtained:
Experiment in all cases: holdup assay
Parameters in all cases: key: below the threshold = too weak to quantify, mostly under pKd 3.1 to 4
TJP1_3, Q07157 = biological target: TJP1_3, Q07157
PDZD7_3, Q9H5P4 = biological target: T1, PDZD7_3, Q9H5P4
T1 sequence (Q9H5P4 857-944, limits assumed, looked up): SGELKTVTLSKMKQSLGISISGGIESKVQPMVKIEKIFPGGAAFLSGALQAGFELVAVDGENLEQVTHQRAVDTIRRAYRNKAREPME

TJP3_3, O95049 = biological target: T2, TJP3_3, O95049
T2 sequence (O95049 375-456, limits assumed, looked up): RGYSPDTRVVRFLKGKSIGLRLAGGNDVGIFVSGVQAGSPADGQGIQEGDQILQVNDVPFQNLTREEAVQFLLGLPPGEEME

NHERF4_4, Q86UT5 = biological target: NHERF4_4, Q86UT5
PDZD2_2, O15018 = biological target: T3, PDZD2_2, O15018
T3 sequence (O15018 329-429, limits assumed, looked up): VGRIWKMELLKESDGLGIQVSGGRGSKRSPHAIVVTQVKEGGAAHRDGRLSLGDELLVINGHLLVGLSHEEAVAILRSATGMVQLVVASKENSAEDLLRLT

HTRA1, Q92743 = biological target: HTRA1, Q92743
GORASP1, Q9BQQ3 = biological target: GORASP1, Q9BQQ3
IL16_3, Q14005 = biological target: IL16_3, Q14005
LIMK2, P53671 = biological target: LIMK2, P53671
SIPA1L2, Q9P2F8 = biological target: T4, SIPA1L2, Q9P2F8
T4 sequence (Q9P2F8 945-1036, limits assumed, looked up): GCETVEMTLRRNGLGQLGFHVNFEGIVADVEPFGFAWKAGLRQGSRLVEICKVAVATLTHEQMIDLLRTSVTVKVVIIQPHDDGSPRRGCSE

HTRA3, P83110 = biological target: T5, HTRA3, P83110
T5 sequence (P83110 354-453, limits assumed, looked up): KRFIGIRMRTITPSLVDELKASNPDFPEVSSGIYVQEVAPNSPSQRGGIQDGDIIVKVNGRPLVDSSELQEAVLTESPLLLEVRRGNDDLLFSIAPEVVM

LNX1_2, Q8TBB1 = biological target: LNX1_2, Q8TBB1
SNTG2, Q9NY99 = biological target: T6, SNTG2, Q9NY99
T6 sequence (Q9NY99 68-166, limits assumed, looked up): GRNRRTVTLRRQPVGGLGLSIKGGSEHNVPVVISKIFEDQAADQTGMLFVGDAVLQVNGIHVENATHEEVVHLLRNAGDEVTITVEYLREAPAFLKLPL

HTRA2, O43464 = biological target: HTRA2, O43464
MAGI2_2, Q86UL8 = biological target: MAGI2_2, Q86UL8
DLG3_2, Q92796 = biological target: T7, DLG3_2, Q92796
T7 sequence (Q92796 221-321, limits assumed, looked up): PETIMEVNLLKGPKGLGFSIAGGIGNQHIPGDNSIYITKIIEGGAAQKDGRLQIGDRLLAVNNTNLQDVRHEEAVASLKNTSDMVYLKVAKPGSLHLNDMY

MAGI2_6, Q86UL8 = biological target: MAGI2_6, Q86UL8
APBA3_1, O96018 = biological target: T8, APBA3_1, O96018
T8 sequence (O96018 389-490, limits assumed, looked up): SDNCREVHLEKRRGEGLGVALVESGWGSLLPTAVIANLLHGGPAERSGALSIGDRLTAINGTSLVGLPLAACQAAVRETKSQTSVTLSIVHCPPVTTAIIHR

GRIP1_5, Q9Y3R0 = biological target: T9, GRIP1_5, Q9Y3R0
T9 sequence (Q9Y3R0 568-668, limits assumed, looked up): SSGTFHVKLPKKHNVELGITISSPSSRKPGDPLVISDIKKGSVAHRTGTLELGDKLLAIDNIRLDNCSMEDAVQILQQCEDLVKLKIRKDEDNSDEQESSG

GRIP2_7, Q9C0E4 = biological target: GRIP2_7, Q9C0E4
GRIP1_4, Q9Y3R0 = biological target: T10, GRIP1_4, Q9Y3R0
T10 sequence (Q9Y3R0 467-571, limits assumed, looked up): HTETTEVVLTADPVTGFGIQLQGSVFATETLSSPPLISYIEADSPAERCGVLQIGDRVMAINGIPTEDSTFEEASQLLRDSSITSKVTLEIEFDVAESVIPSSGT

FRMPD2_3, Q68DX3 = biological target: FRMPD2_3, Q68DX3
Inadl_3, Q8NI35 = biological target: Inadl_3, Q8NI35
FRMPD4, Q14CM0 = biological target: FRMPD4, Q14CM0
FRMPD1, Q5SYB0 = biological target: T11, FRMPD1, Q5SYB0
T11 sequence (Q5SYB0 52-145, limits assumed, looked up): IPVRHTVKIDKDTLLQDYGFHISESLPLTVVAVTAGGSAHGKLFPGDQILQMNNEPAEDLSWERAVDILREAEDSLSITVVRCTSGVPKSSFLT

Inadl_5, Q8NI35 = biological target: Inadl_5, Q8NI35
[1] = plain residues with an end cap or a label only (N-terminal biotin on a linker: ado-ado)
[2] = plain residues with an end cap or a label only (N-terminal biotin on a linker: ttds)
[3] = plain residues with an end cap or a label only (N-terminal biotin on a linker: ahx)

Measured: pKd

Chain of LIMK2, P53671 (P53671 143-248): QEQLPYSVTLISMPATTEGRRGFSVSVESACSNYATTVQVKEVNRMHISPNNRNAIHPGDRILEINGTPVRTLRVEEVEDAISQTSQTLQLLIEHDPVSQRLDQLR
Chain of LNX1_2, Q8TBB1 (Q8TBB1 371-470): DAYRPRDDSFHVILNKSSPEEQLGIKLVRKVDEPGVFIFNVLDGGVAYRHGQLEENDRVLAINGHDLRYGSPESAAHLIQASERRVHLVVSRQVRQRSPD
Chain of MAGI2_2, Q86UL8 (Q86UL8 410-522): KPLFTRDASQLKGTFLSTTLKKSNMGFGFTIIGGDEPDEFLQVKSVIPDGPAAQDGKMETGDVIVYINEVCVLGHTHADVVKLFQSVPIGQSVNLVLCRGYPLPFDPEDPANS
Chain of HTRA2, O43464 (O43464 355-458): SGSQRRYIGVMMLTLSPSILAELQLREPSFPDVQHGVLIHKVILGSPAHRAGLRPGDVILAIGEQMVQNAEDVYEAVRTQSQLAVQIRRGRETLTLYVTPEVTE
Chain of NHERF4_4, Q86UT5 (Q86UT5 464-550): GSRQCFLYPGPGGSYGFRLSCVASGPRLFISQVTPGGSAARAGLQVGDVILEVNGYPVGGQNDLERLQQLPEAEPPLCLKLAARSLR
Chain of FRMPD2_3, Q68DX3 (Q68DX3 1073-1166): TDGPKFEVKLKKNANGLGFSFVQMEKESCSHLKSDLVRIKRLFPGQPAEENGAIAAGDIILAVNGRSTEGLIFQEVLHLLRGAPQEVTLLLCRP
Chain of HTRA1, Q92743 (Q92743 360-477): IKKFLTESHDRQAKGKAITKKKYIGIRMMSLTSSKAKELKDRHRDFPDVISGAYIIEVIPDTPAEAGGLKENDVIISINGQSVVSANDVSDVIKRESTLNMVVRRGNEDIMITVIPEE
Chain of GORASP1, Q9BQQ3 (Q9BQQ3 1-208): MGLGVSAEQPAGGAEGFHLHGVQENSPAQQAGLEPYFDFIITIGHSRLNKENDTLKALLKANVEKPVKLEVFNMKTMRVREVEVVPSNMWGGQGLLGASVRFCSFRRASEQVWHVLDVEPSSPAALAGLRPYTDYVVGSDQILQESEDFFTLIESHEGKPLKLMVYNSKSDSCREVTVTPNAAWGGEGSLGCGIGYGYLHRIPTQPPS
Chain of MAGI2_6, Q86UL8 (Q86UL8 1141-1229): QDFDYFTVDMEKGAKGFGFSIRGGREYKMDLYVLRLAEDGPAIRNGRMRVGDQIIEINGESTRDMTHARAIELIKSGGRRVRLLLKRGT
Chain of FRMPD4, Q14CM0 (Q14CM0 67-160): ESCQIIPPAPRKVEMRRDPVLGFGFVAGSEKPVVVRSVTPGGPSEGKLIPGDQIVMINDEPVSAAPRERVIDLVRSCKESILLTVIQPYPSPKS
Chain of Inadl_3, Q8NI35 (Q8NI35 359-469): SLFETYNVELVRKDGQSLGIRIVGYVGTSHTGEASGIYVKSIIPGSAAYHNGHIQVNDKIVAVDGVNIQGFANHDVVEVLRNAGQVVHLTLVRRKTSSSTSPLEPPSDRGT
Chain of TJP1_3, Q07157 (Q07157 416-512): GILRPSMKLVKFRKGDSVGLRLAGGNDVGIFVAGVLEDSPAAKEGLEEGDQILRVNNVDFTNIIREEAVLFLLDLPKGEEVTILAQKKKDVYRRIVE
Chain of IL16_3, Q14005 (Q14005 1107-1207): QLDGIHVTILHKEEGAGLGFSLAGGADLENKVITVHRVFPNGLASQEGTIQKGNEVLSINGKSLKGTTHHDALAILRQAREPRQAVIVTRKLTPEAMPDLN
Chain of Inadl_5, Q8NI35 (Q8NI35 673-780): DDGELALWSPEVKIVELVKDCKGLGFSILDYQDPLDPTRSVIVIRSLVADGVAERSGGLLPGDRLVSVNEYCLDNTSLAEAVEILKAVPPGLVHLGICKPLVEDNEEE
Chain of GRIP2_7, Q9C0E4 (Q9C0E4 934-1023): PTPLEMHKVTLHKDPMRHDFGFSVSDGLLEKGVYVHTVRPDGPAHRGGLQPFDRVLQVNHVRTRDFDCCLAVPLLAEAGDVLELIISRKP

SVVSERISSV [HTR2C, P28335]
4.26: PDZD7_3, Q9H5P4; [1]
4.68: DLG3_2, Q92796; [1]
5.56: PDZD2_2, O15018; [1]
3.77: MAGI2_2, Q86UL8; [1]
4.64: MAGI2_6, Q86UL8; [1]
4.18: HTRA1, Q92743; [1]
below the threshold: TJP1_3, Q07157; [1] | TJP3_3, O95049; [1] | NHERF4_4, Q86UT5; [1] | GORASP1, Q9BQQ3; [1] | IL16_3, Q14005; [1] | LIMK2, P53671; [1] | SIPA1L2, Q9P2F8; [1] | HTRA3, P83110; [1] | LNX1_2, Q8TBB1; [1] | SNTG2, Q9NY99; [1] | HTRA2, O43464; [1] | APBA3_1, O96018; [1] | GRIP1_5, Q9Y3R0; [1] | GRIP2_7, Q9C0E4; [1] | GRIP1_4, Q9Y3R0; [1] | FRMPD2_3, Q68DX3; [1] | Inadl_3, Q8NI35; [1] | FRMPD4, Q14CM0; [1] | FRMPD1, Q5SYB0; [1] | Inadl_5, Q8NI35; [1]

IQREDQETAV [DGKZ, Q13574]
4.32: PDZD7_3, Q9H5P4; [2]
4.63: MAGI2_6, Q86UL8; [2]
below the threshold: TJP1_3, Q07157; [2] | TJP3_3, O95049; [2] | NHERF4_4, Q86UT5; [2] | GORASP1, Q9BQQ3; [2] | IL16_3, Q14005; [2] | LIMK2, P53671; [2] | SIPA1L2, Q9P2F8; [2] | HTRA3, P83110; [2] | LNX1_2, Q8TBB1; [2] | HTRA2, O43464; [2] | APBA3_1, O96018; [2] | GRIP1_5, Q9Y3R0; [2] | GRIP2_7, Q9C0E4; [2] | GRIP1_4, Q9Y3R0; [2] | Inadl_3, Q8NI35; [2] | FRMPD1, Q5SYB0; [2] | Inadl_5, Q8NI35; [2]
3.93: FRMPD4, Q14CM0; [2]
5.1: PDZD2_2, O15018; [2]
4.88: DLG3_2, Q92796; [2]
4.95: SNTG2, Q9NY99; [2]
3.96: HTRA1, Q92743; [2]
3.65: MAGI2_2, Q86UL8; [2]
3.71: FRMPD2_3, Q68DX3; [2]

EKLSSIESDV [GRIN2B, Q13224]
4.04: SNTG2, Q9NY99; [3]
3.77: PDZD7_3, Q9H5P4; [3]
4.65: MAGI2_6, Q86UL8; [3]
3.57: IL16_3, Q14005; [3]
4.96: DLG3_2, Q92796; [3]
3.53: GRIP2_7, Q9C0E4; [3]
3.91: Inadl_3, Q8NI35; [3]
below the threshold: TJP1_3, Q07157; [3] | TJP3_3, O95049; [3] | NHERF4_4, Q86UT5; [3] | HTRA1, Q92743; [3] | GORASP1, Q9BQQ3; [3] | LIMK2, P53671; [3] | SIPA1L2, Q9P2F8; [3] | HTRA3, P83110; [3] | LNX1_2, Q8TBB1; [3] | HTRA2, O43464; [3] | MAGI2_2, Q86UL8; [3] | APBA3_1, O96018; [3] | GRIP1_5, Q9Y3R0; [3] | GRIP1_4, Q9Y3R0; [3] | FRMPD2_3, Q68DX3; [3] | FRMPD4, Q14CM0; [3] | FRMPD1, Q5SYB0; [3] | Inadl_5, Q8NI35; [3]
4.82: PDZD2_2, O15018; [3]

— publication PMC9482650, “Quantitative fragmentomics allow affinity mapping of interactomes” (Nature Communications, 2022)
